Experiments:
[1] = biological target: human CD73 (cell-surface) (human) (UniProt P21589); assay: cell-based or functional assay
[2] = biological target: human CD73 (cell-surface) (human) (UniProt P21589); assay: CD73 binding in cell lines (human), median EC50; method not stated
[3] = biological target: human CD73 (cell-surface) (human) (UniProt P21589); assay: CD73 binding in cell lines (human), EC50 range; method not stated

Sequence of human CD73 (cell-surface) (human) (P21589 27-549): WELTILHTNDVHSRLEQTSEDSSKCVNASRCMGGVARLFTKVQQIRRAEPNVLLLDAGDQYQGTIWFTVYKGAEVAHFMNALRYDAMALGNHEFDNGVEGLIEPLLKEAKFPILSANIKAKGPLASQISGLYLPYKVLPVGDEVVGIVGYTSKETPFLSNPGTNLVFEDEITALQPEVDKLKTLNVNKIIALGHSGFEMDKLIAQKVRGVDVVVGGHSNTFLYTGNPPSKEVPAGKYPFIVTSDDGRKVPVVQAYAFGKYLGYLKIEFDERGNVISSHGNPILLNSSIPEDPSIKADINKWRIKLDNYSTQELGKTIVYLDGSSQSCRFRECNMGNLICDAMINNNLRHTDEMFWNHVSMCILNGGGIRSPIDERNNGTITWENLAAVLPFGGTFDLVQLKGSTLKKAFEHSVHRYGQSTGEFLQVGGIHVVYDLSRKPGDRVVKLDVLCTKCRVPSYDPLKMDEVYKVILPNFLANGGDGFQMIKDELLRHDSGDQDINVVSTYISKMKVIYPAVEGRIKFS

- Cellular Enzyme Inhibition (blockade of AMP processing), median EC50 [1]: 390 pM
- Internalization, max level [1]: 97.5%
- Internalization, median EC50 [1]: 1200 pM
- EC50 [2]: 500 pM
- EC50 [3]: 300 to 670 pM
B1: CD73.4-IgG2C219S.IgG1.1f (antibody, V domains shown)
VH: QVQLVESGGGVVQPGRSLRLSCAASGFTFSNYGMHWVRQAPGKGLEWVAVILYDGSNKYYPDSVKGRFTISRDNSKNTLYLQMNSLRAEDTAVYYCARGGSSWYPDSFDIWGQGTMVTVSS
VL: DIQMTQSPSSLSASVGDRVTITCRASQGISSWLAWYQQKPEKAPKSLIYAASSLQSGVPSRFSGSGSGTDFTLTISSLQPEDFATYYCQQYNSYPLTFGGGTKVEIKR
